In general, EC50 (read off the curve) refers to the concentration needed to bring the measured effect to its halfway point. A higher EC50 (read off the curve) goes with weaker potency. Broadly, the Kd is the constant that tells how readily two partners part at equilibrium.

Two substances from patent US20260070986A1 can be followed below.

In test [1] the target is CD16A endogenously expressed on primary human NK cells (human) (UniProt P08637). As to the kind of experiment: flow cytometry on primary human NK cells, 37 °C, biotinylated antibody, streptavidin-FITC, without polyclonal human IgG. (Flow cytometry measures light scatter and fluorescence of single cells or particles in a stream.)
Test [2] has as its target human CD16A-mFc (158F) (sAg_107) (human) (UniProt P08637). As to the kind of experiment: ELISA on coated human CD16A-mFc (158F), anti-mouse HRP detection. (An ELISA detects its analyte on a solid surface through an enzyme-linked reagent.)
Test [3] addresses CD16A endogenously expressed on primary human NK cells (human) (UniProt P08637). Briefly: flow cytometry on primary human NK cells, biotinylated antibody, 37 C, with 10 mg/mL polyclonal human IgG as competitor, mean of 4.
Test [4] has as its target human CD16A-mFc (158F) (sAg_107) (human) (UniProt P08637). Briefly: ELISA, plate coated with human CD16A-mFc (158F), one-site fit, mean of 3.
Test [5] deals with human CD16A-mFc (158V) (sAg_149) (human) (UniProt P08637). Briefly: ELISA on coated human CD16A-mFc (158V), anti-mouse HRP detection.
Test [6] deals with CD16A endogenously expressed on primary human NK cells (human) (UniProt P08637). As to the kind of experiment: flow cytometry on primary human NK cells, biotinylated antibody, 37 C, without IgG, mean of 4.
Test [7] has as its target recombinant human FcγRIIB (CD32B), biotinylated (human) (UniProt P31994). Briefly: SPR (Biacore), 37 °C, biotin-captured human CD32B as ligand, steady-state affinity fit.
For test [8], the target named is recombinant human FcγRIIC (CD32C), biotinylated (human) (UniProt P31995). Briefly: SPR (Biacore), 37 °C, biotin-captured human CD32C as ligand, steady-state affinity fit. (In general: Surface plasmon resonance follows binding to a sensor surface in real time, without labels.)
Test [9] addresses recombinant cynomolgus FcγRIIB/C (CD32B/C), biotinylated (cynomolgus). As to the kind of experiment: SPR (Biacore), 37 °C, biotin-captured cynomolgus CD32B/C as ligand, steady-state affinity fit.
For test [10], the target named is recombinant cynomolgus FcγRIIA (CD32A), biotinylated (cynomolgus). As to the kind of experiment: SPR (Biacore), 37 °C, biotin-captured cynomolgus CD32A as ligand, steady-state affinity fit.
For test [11], the target named is recombinant human FcγRIIA (CD32A), biotinylated (human) (UniProt P12318). As to the kind of experiment: SPR (Biacore T200), 37 C, biotin-captured receptor, steady-state affinity.
Test [12] concerns the target recombinant murine FcγRIIB (CD32), biotinylated (murine) (UniProt P08101). Described as above.

Chain of control antibody MOR208 (anti-CD19 human IgG1 Fc enhanced) (HC): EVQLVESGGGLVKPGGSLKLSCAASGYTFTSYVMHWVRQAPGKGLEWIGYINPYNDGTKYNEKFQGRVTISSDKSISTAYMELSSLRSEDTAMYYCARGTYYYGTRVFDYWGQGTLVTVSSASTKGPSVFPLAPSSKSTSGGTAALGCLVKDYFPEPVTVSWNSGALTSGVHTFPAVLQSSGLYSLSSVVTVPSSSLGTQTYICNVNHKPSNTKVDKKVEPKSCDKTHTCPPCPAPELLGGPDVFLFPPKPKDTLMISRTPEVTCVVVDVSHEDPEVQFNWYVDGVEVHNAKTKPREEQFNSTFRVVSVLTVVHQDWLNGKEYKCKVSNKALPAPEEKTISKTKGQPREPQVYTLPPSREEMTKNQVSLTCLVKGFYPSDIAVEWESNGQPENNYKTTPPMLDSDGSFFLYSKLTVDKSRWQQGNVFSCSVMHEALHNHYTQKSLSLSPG
Chain of control antibody MOR208 (anti-CD19 human IgG1 Fc enhanced) (LC): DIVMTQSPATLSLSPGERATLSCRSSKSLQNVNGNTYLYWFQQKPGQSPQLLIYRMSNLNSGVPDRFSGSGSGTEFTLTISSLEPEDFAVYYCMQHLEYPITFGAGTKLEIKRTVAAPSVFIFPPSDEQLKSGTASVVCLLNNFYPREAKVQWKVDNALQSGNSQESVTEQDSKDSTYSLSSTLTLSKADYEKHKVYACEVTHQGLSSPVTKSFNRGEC
Chain of CD16A endogenously expressed on primary human NK cells (human) (P08637 17-254 limits assumed): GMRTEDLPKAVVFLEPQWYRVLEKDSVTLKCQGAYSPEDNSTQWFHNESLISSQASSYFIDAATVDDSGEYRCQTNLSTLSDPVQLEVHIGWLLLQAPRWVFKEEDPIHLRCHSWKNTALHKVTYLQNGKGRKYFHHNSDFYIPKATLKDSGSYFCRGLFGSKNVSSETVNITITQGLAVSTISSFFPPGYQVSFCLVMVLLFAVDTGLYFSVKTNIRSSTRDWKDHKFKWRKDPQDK
Chain of human CD16A-mFc (158F) (sAg_107) (human) (P08637 17-208 limits assumed): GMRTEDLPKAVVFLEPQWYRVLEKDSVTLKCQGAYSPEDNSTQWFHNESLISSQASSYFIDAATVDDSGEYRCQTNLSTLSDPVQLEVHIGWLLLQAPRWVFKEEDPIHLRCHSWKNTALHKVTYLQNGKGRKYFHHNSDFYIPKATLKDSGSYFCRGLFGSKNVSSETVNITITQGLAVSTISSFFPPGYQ
Chain of recombinant human FcγRIIA (CD32A), biotinylated (human) (P12318 34-218 limits assumed): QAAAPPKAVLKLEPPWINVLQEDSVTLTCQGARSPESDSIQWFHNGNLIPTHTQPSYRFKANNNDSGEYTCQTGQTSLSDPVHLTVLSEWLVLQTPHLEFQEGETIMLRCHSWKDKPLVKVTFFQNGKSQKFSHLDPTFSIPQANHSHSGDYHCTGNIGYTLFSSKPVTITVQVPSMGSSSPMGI
Chain of recombinant human FcγRIIB (CD32B), biotinylated (human) (P31994 43-217 limits assumed): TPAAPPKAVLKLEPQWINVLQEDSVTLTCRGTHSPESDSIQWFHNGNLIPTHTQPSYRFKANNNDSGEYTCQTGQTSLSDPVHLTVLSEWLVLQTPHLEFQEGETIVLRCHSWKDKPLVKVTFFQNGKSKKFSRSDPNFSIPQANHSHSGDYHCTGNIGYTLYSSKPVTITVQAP
Chain of recombinant human FcγRIIC (CD32C), biotinylated (human) (P31995 43-223 limits assumed): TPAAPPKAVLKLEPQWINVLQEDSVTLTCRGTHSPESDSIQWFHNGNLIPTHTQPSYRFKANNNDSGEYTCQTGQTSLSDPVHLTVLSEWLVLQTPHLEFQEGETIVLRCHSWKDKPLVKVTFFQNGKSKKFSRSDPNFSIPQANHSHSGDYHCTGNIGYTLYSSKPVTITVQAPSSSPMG
Chain of recombinant murine FcγRIIB (CD32), biotinylated (murine) (P08101 30-207 limits assumed): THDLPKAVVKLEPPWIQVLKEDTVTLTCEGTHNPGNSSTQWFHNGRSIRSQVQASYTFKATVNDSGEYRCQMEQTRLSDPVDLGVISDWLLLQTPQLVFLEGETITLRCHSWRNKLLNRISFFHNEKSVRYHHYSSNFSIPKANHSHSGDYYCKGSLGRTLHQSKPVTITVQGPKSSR

As for anti-human CD16 antibody clone 3G8, the results for the EC50 (read off the curve) in [1], in test [2] and in [5] were 0.4 nM, 0.03 nM and 0.3 nM, respectively. The Kd in [3] came to 54.6 nM; in [4] it was 0.02 nM; in [6], 0.3 nM.
In the case of “control antibody MOR208 (anti-CD19 human IgG1 Fc enhanced)”, the Kd in test [7] was determined as 821 nM; in test [8] it was 474 nM; in [9] it was 351 nM; in test [10], 263 nM; in test [11] it was 223 nM; in [12], 1750 nM.
